Test results: the nanobody polyreactivity screen of Harvey et al. (2022)

assay: yeast display, Sf9 membrane polyspecificity reagent, FACS + sequencing; frameworks hold sequencing errors
Procedure, shortened: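 Genes from sorted yeast were amplified by colony PCR, read by MiSeq 2 × 250 sequencing and filtered on CDR length. These cells carried a synthetic nanobody library in Saccharomyces cerevisiae BJ5465 and were sorted by FACS into low and high (top ~1%) gates on anti-HA and streptavidin fluorescence. Polyreactivity is labelled according to the gate of origin.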

Which “polyreactivity (PSR sort gate)” value does the source give for “QVQLVESGGGLVQAGGSLRLISAASGFIFKIYAMGWHRQAPGKERDLVAAISSGDNTNYADSVKGRFTISRDNAKNTVYLQMNSLKPEDTAVYYCADRAYRWRSFSTMYYWGQGTQVTVSS” here?
The value was “high polyreactivity”.

With “QVQLVESGGGLVQAGGSLRLISAASGGISSLNAMGWYSQAPGKERELVAAIDWIGGSTYYADSVKGRFTISRDTAKNTVYLQKNSLKPEDTAVYYCGKRGVYGDRYYYWGQGTQVTVSS” as the sequence, how does the “polyreactivity (PSR sort gate)” value read?
Its value is “high polyreactivity”.

For “QVQLVESGGGLVQAGGSLRLISAASGLIFKWYGMVWYRQAPGKEREFVAAITSSGTSTYYADSVKGRFTISRDNAKNTVDLHMNSLKPEDTAVYYCNARTKHRYEYDYWGQGTQVTVSS”, which “polyreactivity (PSR sort gate)” value is on record?
The value was “high polyreactivity”.

For “QVQLVESGGGLVQAGGSLRLISAASGSIFERYAMGWYRQAPGKERELVAAITWTGGSTYYADSVKGRFTISRDNAKNTVYLQMNSLKPEDTAVYYCAADYLYPLWGWYDYWGQGTQVTVSS”, which “polyreactivity (PSR sort gate)” value is on record?
Its value is “low polyreactivity”.

With “QVQLVESGGGLVQAGGSLRLISAASGSIFYRNAMGWYRQAPGKERDLVAAISSDGSTNYADSVKGRFTISRDNAKNTVYLQMNSLKPEDTAVYYCAAPWTQILDFWGQGTQVTVSS” as the sequence, how does the “polyreactivity (PSR sort gate)” value read?
Its value is “low polyreactivity”.

For “QVQLVESGGGLVQAGGSLRLISAASGSSFSSYAMGWYRQAPGKERDLVAAISWRGGSTYYADSVKGRFTISRDNAKNTVYLQMNSLKTEDTAVYFCAKLVRGVGTEMYYWGQGTQVTVSS”, which “polyreactivity (PSR sort gate)” value is on record?
The value was “high polyreactivity”.

Which “polyreactivity (PSR sort gate)” value does the source give for “QVQLVESGGGLVQAGGSLRLLCAASGSTIVTNAMGWYRQAPGKERELVAAITSSDGITYYADSVKGRFTISRDNAKNTVYLQMNSLKPEDTAVYYCAAELVSVRYLYALHDRDYWGQGTQVTVSS” here?
Its value is “low polyreactivity”.

For “QVQLVESGGGLVQAGGSLRLNCAASGGIFRGYAMVWYRQAPGKERELVATITYSGTSTYYADSVKGRFTISRDYAKNTVYLQMNSLKPEYTAVYYCNADWWFKYDYWGQGTQVTVSS”, which “polyreactivity (PSR sort gate)” value is on record?
Its value is “low polyreactivity”.

With “QVQLVESGGGLVQAGGSLRLNCAASGRSFQSYAMGWYRTAPGKERELVAAITWSGGDTYYADSVKGRFTISRDNAKNTVYLQMNSLKPEDTAVYYCAKEQGLYSVSPYDYWGQGTQVTVSS” as the sequence, how does the “polyreactivity (PSR sort gate)” value read?
Its value is “low polyreactivity”.

With “QVQLVESGGGLVQAGGSLRLNCAASGRTLVLYVMGWYRQAPGKERELVAAISRSGGRTYYADSVKGRFTISRDNAKNTVYLQMNSLKPEDTAVYYCAAYTSYASDYWGQGTLVTVSS” as the sequence, how does the “polyreactivity (PSR sort gate)” value read?
The value was “high polyreactivity”.

Which “polyreactivity (PSR sort gate)” value does the source give for “QVQLVESGGGLVQAGGSLRLNCAASGSIFDDYAMGWYRQAPGKERELVAAINIRTGSTYYADSVKGRFTISRDNAKNTVYLQMHSLKPEDTEVYYCNRVVRGFVRHLDYWGQGTQVTVSS” here?
The value was “low polyreactivity”.

Which “polyreactivity (PSR sort gate)” value does the source give for “QVQLVESGGGLVQAGGSLRLRCAASGFIFRWYAMGWYRQAPGKERELVARISNGGSTYYADSVKGRFTISRDNAKKTVYLQMNSLKPEDTAVYYCAARLPYGYYSAGYYYWGQGTQVTVSS” here?
Its value is “high polyreactivity”.

Which “polyreactivity (PSR sort gate)” value does the source give for “QVQLVESGGGLVQAGGSLRLRCAASGFILYPYAMGWYRQAPGKERELVAAITSRGGRTYYADSVKGRFTISRDKAKHSVYFQMNSLKPEDTAVFYCAAKRTCNYAPLKYYSWGQGTQVTVSS” here?
Its value is “high polyreactivity”.

Which “polyreactivity (PSR sort gate)” value does the source give for “QVQLVESGGGLVQAGGSLRLRCAASGFTFRYYAMGWYRQAPGKERELVASTYYADSVKGRFTISRDNAKNTVYLQMNSLKPEDTAVYYCNVDGTSSSPFVQKHKEMDYWGQGTQVTVSS” here?
The value was “low polyreactivity”.

Which “polyreactivity (PSR sort gate)” value does the source give for “QVQLVESGGGLVQAGGSLRLRCAASGFTFYHYAMGWYRQAPGKERELVAAITWSGGDTYYADSVKGRFTISRDNAKNTVYLQMNSLKPEDTAVYYCNADDPPGAPYYDSFDYRGDYWGQGTQVTVSS” here?
Its value is “low polyreactivity”.

Which “polyreactivity (PSR sort gate)” value does the source give for “QVQLVESGGGLVQAGGSLRLRCAASGFTIWPYAMGWYRQAPGKERELVAGITRKGGSTYYADSVKGRFTISRDNAKNTVYLQMNSLKPEDTAVYYCNTKYAVEIDYWGQGTQVTVSS” here?
Its value is “low polyreactivity”.

Which “polyreactivity (PSR sort gate)” value does the source give for “QVQLVESGGGLVQAGGSLRLRCAASGFTLRLYTMAWYRQAPGQERELVAAINKRGGSTYYADSVKGRFTISRDNAKNSVYLQMISLKPEDTAVYYCANVPGYKAYEYDYWGQGTQVTVSS” here?
Its value is “high polyreactivity”.

With “QVQLVESGGGLVQAGGSLRLRCAASGINFGYYAMGWYRQAPGKERELVAAITSGASTDYADSVKGRFTISRDNAKNTVYLQMNSLKPEDTAVYYCNADTSASTYTFPFDYCGQGTQVTVSS” as the sequence, how does the “polyreactivity (PSR sort gate)” value read?
The value was “low polyreactivity”.

For “QVQLVESGGGLVQAGGSLRLRCAASGLTFRYYAMGWYRQAPGKERELVAAISRTGRTNYSDSVKGRFTISRDNAKNTVYLQMNSLKPEDTAVYYCAATGIYAKALLWYDYWGQGTQVTVSS”, which “polyreactivity (PSR sort gate)” value is on record?
Its value is “high polyreactivity”.

Which “polyreactivity (PSR sort gate)” value does the source give for “QVQLVESGGGLVQAGGSLRLRCAASGLTFVRYTMGWYRPAPGKERELVAAITYSDASTYYADSVKGRFTISRDNAKNTVYLQKNSLKPEDTAVYYCAAVYFGGPRSNSPYSRYGYWGQGTQVTVSS” here?
The value was “low polyreactivity”.

Which “polyreactivity (PSR sort gate)” value does the source give for “QVQLVESGGGLVQAGGSLRLRCAASGLTFWGYPMGWYRQAPGKEREFVASITSGGGSTYYADSVKGRFTISRDNAKNTVYLQMNILNPEDTAVYYCNVDVHLYLYKSYTYRYYYWGQGTQVTVSS” here?
The value was “low polyreactivity”.

For “QVQLVESGGGLVQAGGSLRLRCAASGRIFDYYAMGWYRPAPGNERELVAALSSSVGNTYYADSVKGRFTISRDNAKNTVYLQMNSLKPEDTAVYYCADNYYVRSSYEVEYDYWGQGTQVTVSS”, which “polyreactivity (PSR sort gate)” value is on record?
Its value is “low polyreactivity”.

Which “polyreactivity (PSR sort gate)” value does the source give for “QVQLVESGGGLVQAGGSLRLRCAASGRIFPDNAMGGYRQAPGKERELVAAITYSGGSTSYADSVKGRFTISRDNAKNTVYLQMNRLKPEDTAVYYCIKAGGTSYDYVRVDKFPGVYWGQGTQVTVSS” here?
The value was “low polyreactivity”.

Which “polyreactivity (PSR sort gate)” value does the source give for “QVQLVESGGGLVQAGGSLRLRCAASGRIFRLYDMGWYRHAPGKEREFVAAISSSGDSTYYADSVKGRFTISRDNAKNTVYLQMNSLKPEDTAVYYCAAVTRRYVLSTFYYWGQGTQVTVSS” here?
The value was “high polyreactivity”.

For “QVQLVESGGGLVQAGGSLRLRCAASGRIFRSYAMGWYRQAPGKEWEMVAAITSGTRTNYADSVKGRCTISRDNAKNTVYLQMNSLKPEDTAVSYCAARGSGFPPYRTRNYWGQGTQVTVSS”, which “polyreactivity (PSR sort gate)” value is on record?
Its value is “high polyreactivity”.

For “QVQLVESGGGLVQAGGSLRLRCAASGRIFTYYTMGWYIQAAGKEMELDANITTGGSTNYADSVKGRFTISRDNAENTVYLQMNSLKPEDSAVYYCNKDGVVEVRFTGRHEYDYWGQGTQVTVSS”, which “polyreactivity (PSR sort gate)” value is on record?
The value was “low polyreactivity”.

With “QVQLVESGGGLVQAGGSLRLRCAASGRIFVHYVMVWSRQAPGKEREFVAAITIGSTYADSVKGRFTISRDNAKNTVYLQMNSLKPEDTAVYYCNARWVVNVRTQGSPPYKYDYWGQGSQVTVSS” as the sequence, how does the “polyreactivity (PSR sort gate)” value read?
The value was “low polyreactivity”.

With “QVQLVESGGGLVQAGGSLRLRCAASGRIFYSNTMGWYRQAPGKERELVADITSGGSTKYADSVKGRFTISRDNAKNTVYLQMISLKPEDTAVYYCAAGERYDWWYGGFQGYDYWGQGTQVTVSS” as the sequence, how does the “polyreactivity (PSR sort gate)” value read?
The value was “high polyreactivity”.

With “QVQLVESGGGLVQAGGSLRLRCAASGRTFAVYAMGWYRQAPGKERELVAAITLGASRTYYADSVKGRFTISRDNAKNTVYLQMNSLKPEDTAVYYCAVTWGARTDQWSLRVFVGYDYWGQGTQVTVSS” as the sequence, how does the “polyreactivity (PSR sort gate)” value read?
Its value is “low polyreactivity”.

For “QVQLVESGGGLVQAGGSLRLRCAASGRTFDGYAMGWYRQAHGKERELVAAISKRGGSTYYADSVKGRCTISRDNAKNSVYFQMNSLKPEDTAVYYCNKRYFGDQTWVGGDSWGQGTQVTVSS”, which “polyreactivity (PSR sort gate)” value is on record?
The value was “high polyreactivity”.

With “QVQLVESGGGLVQAGGSLRLRCAASGRTFGEYTMGWYRQAPGKERELVAAISSAGRTNYADSVKGRFTISRDNAKNTVYLQMNSLKPEDSGVYYCAADWTDDVRGYDYWGQGTQVTVSS” as the sequence, how does the “polyreactivity (PSR sort gate)” value read?
Its value is “low polyreactivity”.

Which “polyreactivity (PSR sort gate)” value does the source give for “QVQLVESGGGLVQAGGSLRLRCAASGRTFRTYTMGWYRKAPGKERELVAAISYSGGSTYYADSVKGRFTISRDNAKNTVYLQMNSLKPEDTAVYYCAIRPYPYKYDYWGQGTQVTVSS” here?
Its value is “high polyreactivity”.

With “QVQLVESGGGLVQAGGSLRLRCAASGRTFWVNAMGCDRQAPGTERELVAGITFRGGSTDYADSVKGRFTISRDNAQNTVYLQMNRLKPEDTAVDDCAARVYRYGAMDYWGQGTQVTVSS” as the sequence, how does the “polyreactivity (PSR sort gate)” value read?
The value was “high polyreactivity”.

With “QVQLVESGGGLVQAGGSLRLRCAASGRTFYGYAMGWYRQAPGKEREFVAAITYTGGRTYYADSVKGRFTISRDNAKNTVYLQMNSLKPEDTAVYYCNAYYYYVNQGRFEYGYWGQGTQVTVSS” as the sequence, how does the “polyreactivity (PSR sort gate)” value read?
Its value is “high polyreactivity”.

For “QVQLVESGGGLVQAGGSLRLRCAASGRTFYYAMGWYRQAPGKERYADSVKGRFTISRDNAKNTVYLQMNSLKPEDTAVYYCAAKVPDPPSLDESDYWGQVTQVTVSS”, which “polyreactivity (PSR sort gate)” value is on record?
The value was “low polyreactivity”.

With “QVQLVESGGGLVQAGGSLRLRCAASGRTLVAYAMGWYRQAPGKERELVAAIDTDTGITYYADSVKGRFTISRDNAKNTVYLQMNSLKPEDTAVYYCAAETYYAVSTGYDFDYWGQGTQVTVSS” as the sequence, how does the “polyreactivity (PSR sort gate)” value read?
Its value is “high polyreactivity”.

With “QVQLVESGGGLVQAGGSLRLRCAASGSIFFRYAMGWYRQAPGKERELVANISSGGGNTYYADSVKGRFTISRDNAKNTVYLQMNSLKPEDTAVYYCARRLATRGHTYDYWGQGTQVTVSS” as the sequence, how does the “polyreactivity (PSR sort gate)” value read?
The value was “low polyreactivity”.

For “QVQLVESGGGLVQAGGSLRLRCAASGSIFVYYAMGWYRQAPGKERELVAAITWRGDNTYYADSVKGRFTISRDNAKNSVYLQMNSLKPEDTAVYYCAADSYTSIFDYWGQGTQVTVSS”, which “polyreactivity (PSR sort gate)” value is on record?
The value was “low polyreactivity”.

With “QVQLVESGGGLVQAGGSLRLRCAASGSIFYRNAMGWNRQAPGKERELVSANTRTGGSTYYADSVQARFTISRDNAKNTVYLQMNSLKPEDTAVYYCPAETWYRWPRSAWRFDYWGQGTQVNVSS” as the sequence, how does the “polyreactivity (PSR sort gate)” value read?
Its value is “high polyreactivity”.

For “QVQLVESGGGLVQAGGSLRLRCAASGSTFAYYAMGWYRQAPGKEREFVATITWTGGSTNYADSVKARFTISRDNAKNTVYLQMNSLKPEDTAVYYCAAAFVISYDYWGQGTQVTVSS”, which “polyreactivity (PSR sort gate)” value is on record?
Its value is “high polyreactivity”.

Which “polyreactivity (PSR sort gate)” value does the source give for “QVQLVESGGGLVQAGGSLRLRCAASGSTFDVYAMGWYRQAPGKERELVASISITDGSTYYADSVKGRFTISRDNAKNTVYLQMNSLIPEVTAVYYCAAEYHTLSKYSGYATHVYWGQGTQVTVSS” here?
Its value is “low polyreactivity”.

For “QVQLVESGGGLVQAGGSLRLRCAASGSTFKFYAMGWYRQAPGKEREFVAAITGSGGSTYYADSVKGRFTISRDNAKNTVYLQMNSLKPEDTAVYYCNTTPVLQLYYWGQGTQVTVSS”, which “polyreactivity (PSR sort gate)” value is on record?
Its value is “low polyreactivity”.

For “QVQLVESGGGLVQAGGSLRLRCAASGSTFQRYAMGWYRQAPGKERELVAAITWSGGSTKYADSVKGRFTISRDNAKTTVYLQMNCLKPEDTAVYYCARTYLSSRWGQGTQVTVSS”, which “polyreactivity (PSR sort gate)” value is on record?
Its value is “low polyreactivity”.
